The values below come from US20100203046A1 (Biogen, published 2010).

Sequences and labels used below:
B1: chCB6-huIgG1 A378Q (antibody, name in EU numbering)
heavy: not shown
light: QIVLTQSPAIMSASPGEKVTMTCRASSSVSHMHWYQQKSGTSPKRWIYDTSKLASGVPARFSGSGSGTSYSLTISSVEAEDAATYYCQQWSSNPLTFGAGTKLELKRTVAAPSVFIFPPSDEQLKSGTASVVCLLNNFYPREAKVQWKVDNALQSGNSQESVTEQDSKDSTYSLSSTLTLSKADYEKHKVYACEVTHQGLSSPVTKSFNRGEC
notes: copies: 2 + 2
B2: chCB6-huIgG1 H435G (antibody, name in EU numbering)
heavy: not shown
light: B1 light
notes: copies: 2 + 2
B3: chCB6-huIgG1 L251A (antibody, name in EU numbering)
heavy: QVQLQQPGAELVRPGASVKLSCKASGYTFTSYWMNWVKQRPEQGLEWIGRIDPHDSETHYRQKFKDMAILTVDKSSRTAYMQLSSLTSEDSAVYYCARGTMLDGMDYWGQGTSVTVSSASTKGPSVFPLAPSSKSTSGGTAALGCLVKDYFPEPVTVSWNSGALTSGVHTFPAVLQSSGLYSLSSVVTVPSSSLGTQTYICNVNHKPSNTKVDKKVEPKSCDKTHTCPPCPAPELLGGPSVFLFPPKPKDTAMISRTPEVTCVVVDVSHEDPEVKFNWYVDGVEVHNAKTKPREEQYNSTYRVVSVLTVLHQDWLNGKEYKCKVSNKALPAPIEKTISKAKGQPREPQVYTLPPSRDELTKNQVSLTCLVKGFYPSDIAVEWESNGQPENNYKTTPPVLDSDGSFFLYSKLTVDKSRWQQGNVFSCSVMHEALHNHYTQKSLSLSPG
light: B1 light
notes: copies: 2 + 2
B4: chCB6-huIgG1 L251S (antibody, name in EU numbering)
heavy: not shown
light: B1 light
notes: copies: 2 + 2
B5: chCB6-huIgG1 Y296S (antibody, name in EU numbering)
heavy: not shown
light: B1 light
notes: copies: 2 + 2
B6: chCB6-huIgG1 L251G (antibody, name in EU numbering)
heavy: not shown
light: B1 light
notes: copies: 2 + 2
B7: chCB6-huIgG1 A378H (antibody, name in EU numbering)
heavy: not shown
light: B1 light
notes: copies: 2 + 2
B8: chCB6-huIgG1 H435A (antibody, name in EU numbering)
heavy: not shown
light: B1 light
notes: copies: 2 + 2
B9: chCB6-huIgG1 D376H (antibody, name in EU numbering)
heavy: not shown
light: B1 light
notes: copies: 2 + 2
B10: chCB6-huIgG1 A378K (antibody, name in EU numbering)
heavy: not shown
light: B1 light
notes: copies: 2 + 2
B11: chCB6-huIgG1 H435S (antibody, name in EU numbering)
heavy: not shown
light: B1 light
notes: copies: 2 + 2
B12: chCB6-huIgG1 D376R (antibody, name in EU numbering)
heavy: not shown
light: B1 light
notes: copies: 2 + 2
B13: chCB6-huIgG1 A378R (antibody, name in EU numbering)
heavy: not shown
light: B1 light
notes: copies: 2 + 2
B14: chCB6-huIgG1 K334D (antibody, name in EU numbering)
heavy: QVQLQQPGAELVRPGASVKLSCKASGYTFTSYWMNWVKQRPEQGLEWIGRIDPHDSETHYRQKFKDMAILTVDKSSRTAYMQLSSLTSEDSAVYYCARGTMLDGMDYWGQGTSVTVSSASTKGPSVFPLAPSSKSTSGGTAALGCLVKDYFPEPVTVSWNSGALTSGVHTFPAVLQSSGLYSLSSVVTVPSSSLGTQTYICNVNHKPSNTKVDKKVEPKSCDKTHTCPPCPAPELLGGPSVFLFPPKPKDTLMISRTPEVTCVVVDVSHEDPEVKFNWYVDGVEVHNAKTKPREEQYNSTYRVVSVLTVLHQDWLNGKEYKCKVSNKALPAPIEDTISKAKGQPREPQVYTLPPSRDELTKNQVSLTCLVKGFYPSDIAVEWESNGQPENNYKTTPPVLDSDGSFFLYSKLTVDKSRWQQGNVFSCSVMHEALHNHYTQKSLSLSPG
light: B1 light
notes: copies: 2 + 2
B15: chCB6-huIgG1 K334Q (antibody, name in EU numbering)
heavy: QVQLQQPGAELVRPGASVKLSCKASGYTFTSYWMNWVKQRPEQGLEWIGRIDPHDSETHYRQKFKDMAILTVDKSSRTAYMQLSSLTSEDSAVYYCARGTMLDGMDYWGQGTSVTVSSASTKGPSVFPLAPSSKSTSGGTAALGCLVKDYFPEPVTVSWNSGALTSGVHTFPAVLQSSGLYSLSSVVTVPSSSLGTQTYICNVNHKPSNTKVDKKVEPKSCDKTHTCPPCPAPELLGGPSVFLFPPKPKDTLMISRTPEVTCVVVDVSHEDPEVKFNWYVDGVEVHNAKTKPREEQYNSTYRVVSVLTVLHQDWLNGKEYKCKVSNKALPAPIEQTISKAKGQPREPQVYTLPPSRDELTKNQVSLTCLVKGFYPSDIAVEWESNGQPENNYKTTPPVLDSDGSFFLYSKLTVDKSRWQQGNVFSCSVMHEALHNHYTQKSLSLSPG
light: B1 light
notes: copies: 2 + 2
B16: chCB6-huIgG1 K326E (antibody, name in EU numbering)
heavy: not shown
light: B1 light
notes: copies: 2 + 2
B17: chCB6-huIgG1 E333D (antibody, name in EU numbering)
heavy: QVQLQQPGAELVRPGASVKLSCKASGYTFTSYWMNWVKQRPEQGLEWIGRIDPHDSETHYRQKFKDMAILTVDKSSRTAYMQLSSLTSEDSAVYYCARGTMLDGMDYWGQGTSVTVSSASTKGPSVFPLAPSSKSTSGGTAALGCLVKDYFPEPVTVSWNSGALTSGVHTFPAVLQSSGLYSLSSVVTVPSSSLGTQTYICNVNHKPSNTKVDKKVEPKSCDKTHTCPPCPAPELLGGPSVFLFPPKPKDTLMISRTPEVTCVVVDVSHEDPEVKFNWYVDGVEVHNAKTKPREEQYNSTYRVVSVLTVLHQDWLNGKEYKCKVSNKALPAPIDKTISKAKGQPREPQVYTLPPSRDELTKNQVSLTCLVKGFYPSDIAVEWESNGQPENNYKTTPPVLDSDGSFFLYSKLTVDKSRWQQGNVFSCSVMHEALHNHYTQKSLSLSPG
light: B1 light
notes: copies: 2 + 2
B18: chCB6-huIgG1 K338M (antibody, name in EU numbering)
heavy: not shown
light: B1 light
notes: copies: 2 + 2
B19: chCB6-huIgG1 K334N (antibody, name in EU numbering)
heavy: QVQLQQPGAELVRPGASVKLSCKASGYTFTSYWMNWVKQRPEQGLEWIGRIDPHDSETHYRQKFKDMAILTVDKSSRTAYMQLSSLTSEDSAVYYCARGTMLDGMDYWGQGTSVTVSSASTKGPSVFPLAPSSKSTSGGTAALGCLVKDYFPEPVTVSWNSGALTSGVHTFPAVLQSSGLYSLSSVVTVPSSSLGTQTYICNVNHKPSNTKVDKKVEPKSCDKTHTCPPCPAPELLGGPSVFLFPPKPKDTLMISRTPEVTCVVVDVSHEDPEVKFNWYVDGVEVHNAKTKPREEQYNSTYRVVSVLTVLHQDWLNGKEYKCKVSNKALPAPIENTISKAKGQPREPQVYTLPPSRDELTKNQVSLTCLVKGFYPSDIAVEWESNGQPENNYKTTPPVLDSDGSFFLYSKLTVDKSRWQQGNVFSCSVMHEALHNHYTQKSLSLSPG
light: B1 light
notes: copies: 2 + 2
B20: chCB6-huIgG1 K326N (antibody, name in EU numbering)
heavy: not shown
light: B1 light
notes: copies: 2 + 2
B21: chCB6-huIgG1 L234D (antibody, name in EU numbering)
heavy: not shown
light: B1 light
notes: copies: 2 + 2
B22: chCB6-huIgG1 K326D (antibody, name in EU numbering)
heavy: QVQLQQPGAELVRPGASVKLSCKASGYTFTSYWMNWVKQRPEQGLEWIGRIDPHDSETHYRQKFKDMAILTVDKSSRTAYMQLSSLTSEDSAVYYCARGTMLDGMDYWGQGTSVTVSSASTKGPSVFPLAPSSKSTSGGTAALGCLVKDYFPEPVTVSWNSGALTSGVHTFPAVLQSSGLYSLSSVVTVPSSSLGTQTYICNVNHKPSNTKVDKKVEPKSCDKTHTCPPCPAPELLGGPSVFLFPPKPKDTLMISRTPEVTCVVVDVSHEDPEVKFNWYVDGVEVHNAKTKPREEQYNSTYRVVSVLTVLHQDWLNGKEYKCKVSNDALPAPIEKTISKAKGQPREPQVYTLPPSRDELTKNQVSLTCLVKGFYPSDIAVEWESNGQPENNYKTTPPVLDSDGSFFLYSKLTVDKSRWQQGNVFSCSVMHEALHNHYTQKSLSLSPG
light: B1 light
notes: copies: 2 + 2
B23: chCB6-huIgG1 K326Q (antibody, name in EU numbering)
heavy: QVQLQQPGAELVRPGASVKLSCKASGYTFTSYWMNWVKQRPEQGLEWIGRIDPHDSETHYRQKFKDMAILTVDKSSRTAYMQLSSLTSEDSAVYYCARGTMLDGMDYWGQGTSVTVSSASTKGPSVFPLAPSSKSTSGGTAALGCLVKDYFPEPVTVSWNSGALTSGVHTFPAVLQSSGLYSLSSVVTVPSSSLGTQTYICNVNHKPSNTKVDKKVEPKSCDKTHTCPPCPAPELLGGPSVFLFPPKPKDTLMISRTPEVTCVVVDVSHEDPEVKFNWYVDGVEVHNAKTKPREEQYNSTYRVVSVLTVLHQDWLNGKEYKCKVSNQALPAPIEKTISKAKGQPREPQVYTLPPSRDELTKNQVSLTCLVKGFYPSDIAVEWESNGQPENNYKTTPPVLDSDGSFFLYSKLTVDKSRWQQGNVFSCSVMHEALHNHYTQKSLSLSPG
light: B1 light
notes: copies: 2 + 2
B24: chCB6-huIgG1 F241H (antibody, name in EU numbering)
heavy: not shown
light: B1 light
notes: copies: 2 + 2
B25: chCB6-huIgG1 D265E (antibody, name in EU numbering)
heavy: not shown
light: B1 light
notes: copies: 2 + 2
B26: chCB6-huIgG1 E293D (antibody, name in EU numbering)
heavy: not shown
light: B1 light
notes: copies: 2 + 2
B27: chCB6-huIgG1 K334R (antibody, name in EU numbering)
heavy: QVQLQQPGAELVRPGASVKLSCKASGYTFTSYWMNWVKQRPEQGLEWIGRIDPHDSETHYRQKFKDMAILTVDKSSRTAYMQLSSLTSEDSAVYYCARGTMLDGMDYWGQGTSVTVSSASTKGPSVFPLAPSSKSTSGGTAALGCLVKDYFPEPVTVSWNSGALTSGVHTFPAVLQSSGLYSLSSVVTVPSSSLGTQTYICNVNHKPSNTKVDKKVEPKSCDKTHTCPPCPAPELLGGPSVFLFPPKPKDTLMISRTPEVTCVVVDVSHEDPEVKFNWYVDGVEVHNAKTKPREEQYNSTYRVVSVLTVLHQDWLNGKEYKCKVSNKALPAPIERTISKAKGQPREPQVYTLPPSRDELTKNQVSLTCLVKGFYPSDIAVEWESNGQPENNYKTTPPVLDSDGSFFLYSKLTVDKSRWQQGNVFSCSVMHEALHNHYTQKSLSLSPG
light: B1 light
notes: copies: 2 + 2
B28: chCB6-huIgG1 D270E (antibody, name in EU numbering)
heavy: not shown
light: B1 light
notes: copies: 2 + 2
B29: chCB6-huIgG1 K334V (antibody, name in EU numbering)
heavy: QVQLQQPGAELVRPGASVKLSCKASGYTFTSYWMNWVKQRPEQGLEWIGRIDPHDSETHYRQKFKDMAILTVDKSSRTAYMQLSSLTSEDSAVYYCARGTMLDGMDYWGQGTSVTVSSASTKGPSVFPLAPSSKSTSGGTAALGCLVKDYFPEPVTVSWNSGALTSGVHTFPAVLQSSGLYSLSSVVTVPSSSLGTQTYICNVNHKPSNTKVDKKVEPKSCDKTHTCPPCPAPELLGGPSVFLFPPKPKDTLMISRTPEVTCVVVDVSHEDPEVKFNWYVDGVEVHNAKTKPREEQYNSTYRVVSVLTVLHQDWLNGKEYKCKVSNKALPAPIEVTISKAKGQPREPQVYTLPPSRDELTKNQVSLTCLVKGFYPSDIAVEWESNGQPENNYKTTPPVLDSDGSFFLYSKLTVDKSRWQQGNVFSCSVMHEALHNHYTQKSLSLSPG
light: B1 light
notes: copies: 2 + 2
B30: chCB6-huIgG1 Y296F (antibody, name in EU numbering)
heavy: not shown
light: B1 light
notes: copies: 2 + 2
B31: chCB6-huIgG1 K334E (antibody, name in EU numbering)
heavy: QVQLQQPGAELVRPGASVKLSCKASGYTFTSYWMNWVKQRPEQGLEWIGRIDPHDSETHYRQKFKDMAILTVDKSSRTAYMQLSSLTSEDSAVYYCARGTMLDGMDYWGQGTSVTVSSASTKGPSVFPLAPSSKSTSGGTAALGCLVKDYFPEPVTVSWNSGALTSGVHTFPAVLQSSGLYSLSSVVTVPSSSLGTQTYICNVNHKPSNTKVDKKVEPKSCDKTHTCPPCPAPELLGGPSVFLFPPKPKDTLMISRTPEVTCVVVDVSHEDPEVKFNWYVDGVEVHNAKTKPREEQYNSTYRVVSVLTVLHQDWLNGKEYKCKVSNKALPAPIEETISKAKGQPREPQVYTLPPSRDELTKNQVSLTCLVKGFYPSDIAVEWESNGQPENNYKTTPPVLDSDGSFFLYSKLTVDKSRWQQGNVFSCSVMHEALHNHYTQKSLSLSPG
light: B1 light
notes: copies: 2 + 2
B32: chCB6-huIgG1 I332D/A378W (antibody, name in EU numbering)
heavy: not shown
light: B1 light
notes: copies: 2 + 2
B33: chCB6-huIgG1 I332D/A378F (antibody, name in EU numbering)
heavy: not shown
light: B1 light
notes: copies: 2 + 2
B34: chCB6-huIgG1 I332D/A378K (antibody, name in EU numbering)
heavy: not shown
light: B1 light
notes: copies: 2 + 2
B35: chCB6-huIgG1 E294A (antibody, name in EU numbering)
heavy: not shown
light: B1 light
notes: copies: 2 + 2

One assay concerns the target T1, human C1q (Sigma C0660) (human, UniProt P02745 23-245; P02746 28-253; P02747 29-245).
T1 construct: Bought protein; also called complement protein C1q
In words: C1q ELISA on CD2, transient. On the procedure: (§1) The C1q binding assay was performed by coating 96 well Maxisorb ELISA plates (Nalge-Nunc Rochester, N.Y., USA) with 50 μl recombinant soluble human CD2 at 10 μg/ml overnight at 4° C. in PBS. The wells were aspirated and washed three times with wash buffer (PBS, 0.05% Tween 20) and blocked for >1 h with 200 μ/well of block/diluent buffer (0.1 M Na₂HPO₄, pH 7, 0.1 M NaCl, 0.05% Tween 20, 0.1% gelatin). The antibody to be tested was diluted in block/diluent buffer starting at 15 μg/ml with 3-fold dilutions. 50 μl were added per well, and the plates incubated for 2 h at room temperature. After aspirating and washing as above, 50 μl/well of 2 μg/ml of Sigma human C1q (C0660) diluted in block/diluent buffer was added and incubated for 1.5 h at room temperature. After aspirating and washing as above, 50 μl/well of chicken anti human C1q (Cedarlane laboratories CL2101AP), diluted 2,000-fold in block/diluent buffer, was added. After incubation for 1.5 h at room temperature, the wells were aspirated and washed as above. 50 μl/well of donkey F(ab′)₂ anti chicken IgY HRP conjugate (Jackson ImmunoResearch 703-036-155) diluted to 1:5,000 in block/diluent was then added, and the wells incubated for 1 h at room temperature. After aspirating and washing as above, 100 μl TMB substrate (420 μM TMB, 0.004% H₂O₂ in 0.1 M sodium acetate/citric acid buffer, pH 4.9) was added and incubated for 2 min before the reaction was stopped with 100 μl 2 N sulfuric acid. The absorbance was read at 450 nm with a Softmax P instrument, and Softmax software was used to determine the relative binding affinity (C value) with a 4-parameter fit.
(In general: An ELISA detects its analyte on a solid surface through an enzyme-linked reagent.)
Consider B1, for which the binding result was “binds”.

Regarding B2, the “fold increase in binding vs WT” value worked out at 4 fold.

Turning to B3, the “fold increase in binding vs WT” value worked out at 3 fold.

B4: the binding result was “binds”.

As to B5, the “fold decrease in binding vs WT” value worked out at 4 fold.

On to B6, for which the “fold increase in binding vs WT” value amounted to 3 fold.

With B7, the binding result is given as “binds”.

For the molecule B8, the binding result is given as “binds”.

As for B9, the binding result is reported as “binds”.

B10: the “fold increase in binding vs WT” value came out at 4 fold.

Take B11: the “fold increase in binding vs WT” value turned out to be 4 fold.

For the molecule B12, the binding result is recorded as “binds”.

Turning to B13, the binding result is given as “binds”.

For another assay, the target named is T2, human FcγRIII (CD16), CD16a (F158), on CD16-transfected Jurkat cells (human, UniProt P08637 17-254).
T2 construct: whole, on cells
T2 sequence (P08637 17-254): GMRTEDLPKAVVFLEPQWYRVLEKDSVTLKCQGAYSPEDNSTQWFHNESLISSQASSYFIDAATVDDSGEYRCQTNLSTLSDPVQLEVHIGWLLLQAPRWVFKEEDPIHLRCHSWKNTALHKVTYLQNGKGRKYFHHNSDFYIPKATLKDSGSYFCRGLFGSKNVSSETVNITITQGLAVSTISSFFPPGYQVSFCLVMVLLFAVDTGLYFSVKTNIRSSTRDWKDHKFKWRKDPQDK
The assay can be described thus: CD16 bridging assay, transient.
In the case of B14, the binding result was “binds”.

Regarding B15, the binding result is listed as “binds”.

B16: the binding result is recorded as “binds”.

For the molecule B17, the binding result is on record as “binds”.

As to B18, the “fold decrease in binding vs WT” value amounted to 6 fold.

Take B19: the binding result is on record as “binds”.

Regarding B20, the binding result is “binds”.

Take B21: the “fold decrease in binding vs WT” value was determined as 4 fold.

B22: the binding result is “binds”.

As to B23, the binding result is “binds”.

For B24, the “fold decrease in binding vs WT” value was found to be 9 fold.

For B25, the binding result is recorded as “no binding”.

For B26, the “fold decrease in binding vs WT” value was determined as 4 fold.

As to B27, the binding result is listed as “binds”.

On to B28, for which the binding result is reported as “binds”.

B29: the “fold increase in binding vs WT” value was 3 fold.

In the case of B30, the “fold decrease in binding vs WT” value came to 2 fold.

B31: the binding result is recorded as “binds”.

A further assay concerns the target T2, human FcγRIII (CD16), CD16a (F158), on …. The assay can be described thus: CD16 bridging assay, transient. The source holds these as a separate data set.
On to B1, for which the binding result was “binds”.

Consider B2, for which the “fold decrease in binding vs WT” value worked out at 4 fold.

Take B3: the binding result is given as “binds”.

Consider B4, for which the binding result is “binds”.

With B6, the binding result is given as “no binding”.

With B7, the “fold decrease in binding vs WT” value amounted to 6 fold.

In the case of B8, the “fold decrease in binding vs WT” value was determined as 4 fold.

With B9, the “fold decrease in binding vs WT” value was 6 fold.

In the case of B10, the binding result is “binds”.

As to B11, the “fold decrease in binding vs WT” value is 5 fold.

With B12, the “fold decrease in binding vs WT” value amounted to 9 fold.

As for B13, the binding result is recorded as “binds”.

The next assay deals with T3, human FcγRI (CD64) on IFNγ-activated U937 cells (human, UniProt P12314 16-374).
T3 construct: whole, on cells; also called FcγR1
The assay can be described thus: CD64 bridging assay, purified.
As to B14, the binding result is listed as “binds”.

For the molecule B15, the binding result was “binds”.

Regarding B17, the binding result is reported as “binds”.

As for B19, the binding result was “binds”.

In the case of B22, the binding result is given as “binds”.

Regarding B23, the binding result is recorded as “binds”.

Turning to B27, the “fold decrease in binding vs WT” value is 5 fold.

For B29, the binding result is given as “binds”.

In the case of B31, the binding result is “binds”.

The next assay concerns the target T2, human FcγRIII (CD16), CD16a (F158), on …. The assay can be described thus: CD16 bridging assay, transient. The source holds these as a separate data set.
Take B32: the “fold increase in binding vs WT” value came to 5 fold.

Turning to B33, the “fold increase in binding vs WT” value is 5 fold.

On to B34, for which the binding result is on record as “binds”.

The target in a further assay is T1, human C1q (Sigma C0660). In words: C1q ELISA on CD2, purified. On the procedure:
as §1
Turning to B14, the binding result is “binds”.

For B15, the binding result is on record as “binds”.

As for B17, the “fold decrease in binding vs WT” value worked out at 2 fold.

Regarding B19, the binding result is recorded as “binds”.

On to B3, for which the “fold increase in binding vs WT” value worked out at 2 fold.

On to B22, for which the “fold increase in binding vs WT” value amounted to 2 fold.

On to B23, for which the binding result is on record as “binds”.

Turning to B5, the “fold decrease in binding vs WT” value came out at 5 fold.

B35: the “fold decrease in binding vs WT” value amounted to 3 fold.

Regarding B27, the “fold increase in binding vs WT” value stood at 4 fold.

Turning to B29, the binding result is “binds”.

B31: the binding result was “binds”.
